Experimental data reported in patent US20140087995A1 (published 2014).
Numbered stars: 1 amine (or outer) side, 2 acyl side, 3 side chain; on linkers, the order of the positions; unused ones are H or OH. Bridge positions count the residues as written; N and C are the ends. * marks the point of attachment. C20 diacid = O=C(O)CCCCCCCCCCCCCCCCCCC(=O)*; γGlu = O=C(O)[C@H](CCC(=O)[*:2])N[*:1]

T1: human amylin 3(a) receptor (human calcitonin receptor + RAMP-3) (human, UniProt P30988 25-474; O60896 24-148, limits assumed)
T1 sequence (looked up) 1: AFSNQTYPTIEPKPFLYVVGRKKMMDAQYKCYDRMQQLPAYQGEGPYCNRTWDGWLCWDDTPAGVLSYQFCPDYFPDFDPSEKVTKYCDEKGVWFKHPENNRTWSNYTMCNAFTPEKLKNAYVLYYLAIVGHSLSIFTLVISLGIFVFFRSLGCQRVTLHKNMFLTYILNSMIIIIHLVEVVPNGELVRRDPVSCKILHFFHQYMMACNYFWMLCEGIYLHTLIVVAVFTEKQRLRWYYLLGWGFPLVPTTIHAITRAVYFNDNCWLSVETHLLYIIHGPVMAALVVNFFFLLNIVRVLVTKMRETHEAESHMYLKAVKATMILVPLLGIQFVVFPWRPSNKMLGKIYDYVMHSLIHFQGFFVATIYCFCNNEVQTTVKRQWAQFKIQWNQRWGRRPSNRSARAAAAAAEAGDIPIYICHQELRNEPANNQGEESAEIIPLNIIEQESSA
T1 sequence (looked up) 2: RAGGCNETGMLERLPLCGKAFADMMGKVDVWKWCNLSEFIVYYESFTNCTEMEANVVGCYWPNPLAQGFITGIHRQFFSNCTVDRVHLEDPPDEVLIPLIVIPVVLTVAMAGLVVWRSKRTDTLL

T2: human calcitonin receptor (human, UniProt P30988 25-474)
T2 sequence (looked up): T1 sequence (looked up) 1

B1: N^α1-[(4S)-4-carboxy-4-(19-carboxynonadecanoylamino)butanoyl]-[Glu14,Arg17,Pro21,Pro27,Pro37]-h-amylin (peptide)
peptide: {C20 diacid-γGlu}-KCNTATCATQRLAEFLRHSSPNFGAIPSSTNVGSNTP-NH2
modifications: disulfide 2-7
SMILES: CC[C@H](C)[C@H](NC(=O)[C@H](C)NC(=O)CNC(=O)[C@H](Cc1ccccc1)NC(=O)[C@H](CC(N)=O)NC(=O)[C@@H]1CCCN1C(=O)[C@H](CO)NC(=O)[C@H](CO)NC(=O)[C@H](Cc1c[nH]cn1)NC(=O)[C@H](CCCNC(=N)N)NC(=O)[C@H](CC(C)C)NC(=O)[C@H](Cc1ccccc1)NC(=O)[C@H](CCC(=O)O)NC(=O)[C@H](C)NC(=O)[C@H](CC(C)C)NC(=O)[C@H](CCCNC(=N)N)NC(=O)[C@H](CCC(N)=O)NC(=O)[C@@H](NC(=O)[C@H](C)NC(=O)[C@@H]1CSSC[C@H](NC(=O)[C@H](CCCCN)NC(=O)CC[C@H](NC(=O)CCCCCCCCCCCCCCCCCCC(=O)O)C(=O)O)C(=O)N[C@@H](CC(N)=O)C(=O)N[C@@H]([C@@H](C)O)C(=O)N[C@@H](C)C(=O)N[C@@H]([C@@H](C)O)C(=O)N1)[C@@H](C)O)C(=O)N1CCC[C@H]1C(=O)N[C@@H](CO)C(=O)N[C@@H](CO)C(=O)N[C@H](C(=O)N[C@@H](CC(N)=O)C(=O)N[C@H](C(=O)NCC(=O)N[C@@H](CO)C(=O)N[C@@H](CC(N)=O)C(=O)N[C@H](C(=O)N1CCC[C@H]1C(N)=O)[C@@H](C)O)C(C)C)[C@@H](C)O
notes: also called compound 8
B2: N^α1-[(4S)-4-carboxy-4-(19-carboxynonadecanoylamino)butanoyl]-[Glu14,Arg17,Pro21,Pro27,Asp35,Pro37]-h-amylin (peptide)
peptide: {C20 diacid-γGlu}-KCNTATCATQRLAEFLRHSSPNFGAIPSSTNVGSDTP-NH2
modifications: disulfide 2-7
SMILES: CC[C@H](C)[C@H](NC(=O)[C@H](C)NC(=O)CNC(=O)[C@H](Cc1ccccc1)NC(=O)[C@H](CC(N)=O)NC(=O)[C@@H]1CCCN1C(=O)[C@H](CO)NC(=O)[C@H](CO)NC(=O)[C@H](Cc1c[nH]cn1)NC(=O)[C@H](CCCNC(=N)N)NC(=O)[C@H](CC(C)C)NC(=O)[C@H](Cc1ccccc1)NC(=O)[C@H](CCC(=O)O)NC(=O)[C@H](C)NC(=O)[C@H](CC(C)C)NC(=O)[C@H](CCCNC(=N)N)NC(=O)[C@H](CCC(N)=O)NC(=O)[C@@H](NC(=O)[C@H](C)NC(=O)[C@@H]1CSSC[C@H](NC(=O)[C@H](CCCCN)NC(=O)CC[C@H](NC(=O)CCCCCCCCCCCCCCCCCCC(=O)O)C(=O)O)C(=O)N[C@@H](CC(N)=O)C(=O)N[C@@H]([C@@H](C)O)C(=O)N[C@@H](C)C(=O)N[C@@H]([C@@H](C)O)C(=O)N1)[C@@H](C)O)C(=O)N1CCC[C@H]1C(=O)N[C@@H](CO)C(=O)N[C@@H](CO)C(=O)N[C@H](C(=O)N[C@@H](CC(N)=O)C(=O)N[C@H](C(=O)NCC(=O)N[C@@H](CO)C(=O)N[C@@H](CC(=O)O)C(=O)N[C@H](C(=O)N1CCC[C@H]1C(N)=O)[C@@H](C)O)C(C)C)[C@@H](C)O
notes: also called compound 11
B3: N^α1-[(4S)-4-carboxy-4-(19-carboxynonadecanoylamino)butanoyl]-[Asp14,Arg17,Pro21,Pro27,Pro37]-h-amylin (peptide)
peptide: {C20 diacid-γGlu}-KCNTATCATQRLADFLRHSSPNFGAIPSSTNVGSNTP-NH2
modifications: disulfide 2-7
SMILES: CC[C@H](C)[C@H](NC(=O)[C@H](C)NC(=O)CNC(=O)[C@H](Cc1ccccc1)NC(=O)[C@H](CC(N)=O)NC(=O)[C@@H]1CCCN1C(=O)[C@H](CO)NC(=O)[C@H](CO)NC(=O)[C@H](Cc1c[nH]cn1)NC(=O)[C@H](CCCNC(=N)N)NC(=O)[C@H](CC(C)C)NC(=O)[C@H](Cc1ccccc1)NC(=O)[C@H](CC(=O)O)NC(=O)[C@H](C)NC(=O)[C@H](CC(C)C)NC(=O)[C@H](CCCNC(=N)N)NC(=O)[C@H](CCC(N)=O)NC(=O)[C@@H](NC(=O)[C@H](C)NC(=O)[C@@H]1CSSC[C@H](NC(=O)[C@H](CCCCN)NC(=O)CC[C@H](NC(=O)CCCCCCCCCCCCCCCCCCC(=O)O)C(=O)O)C(=O)N[C@@H](CC(N)=O)C(=O)N[C@@H]([C@@H](C)O)C(=O)N[C@@H](C)C(=O)N[C@@H]([C@@H](C)O)C(=O)N1)[C@@H](C)O)C(=O)N1CCC[C@H]1C(=O)N[C@@H](CO)C(=O)N[C@@H](CO)C(=O)N[C@H](C(=O)N[C@@H](CC(N)=O)C(=O)N[C@H](C(=O)NCC(=O)N[C@@H](CO)C(=O)N[C@@H](CC(N)=O)C(=O)N[C@H](C(=O)N1CCC[C@H]1C(N)=O)[C@@H](C)O)C(C)C)[C@@H](C)O
notes: also called compound 10
B4: N^α1N^α1-[(4S)-4-carboxy-4-(19-carboxynonadecanoylamino)butanoyl]-[Glu14,Arg17,Pro21,Pro27,Glu35]-h-amylin (peptide)
peptide: {C20 diacid-γGlu}-KCNTATCATQRLAEFLRHSSPNFGAIPSSTNVGSETY-NH2
modifications: disulfide 2-7
SMILES: CC[C@H](C)[C@H](NC(=O)[C@H](C)NC(=O)CNC(=O)[C@H](Cc1ccccc1)NC(=O)[C@H](CC(N)=O)NC(=O)[C@@H]1CCCN1C(=O)[C@H](CO)NC(=O)[C@H](CO)NC(=O)[C@H](Cc1c[nH]cn1)NC(=O)[C@H](CCCNC(=N)N)NC(=O)[C@H](CC(C)C)NC(=O)[C@H](Cc1ccccc1)NC(=O)[C@H](CCC(=O)O)NC(=O)[C@H](C)NC(=O)[C@H](CC(C)C)NC(=O)[C@H](CCCNC(=N)N)NC(=O)[C@H](CCC(N)=O)NC(=O)[C@@H](NC(=O)[C@H](C)NC(=O)[C@@H]1CSSC[C@H](NC(=O)[C@H](CCCCN)NC(=O)CC[C@H](NC(=O)CCCCCCCCCCCCCCCCCCC(=O)O)C(=O)O)C(=O)N[C@@H](CC(N)=O)C(=O)N[C@@H]([C@@H](C)O)C(=O)N[C@@H](C)C(=O)N[C@@H]([C@@H](C)O)C(=O)N1)[C@@H](C)O)C(=O)N1CCC[C@H]1C(=O)N[C@@H](CO)C(=O)N[C@@H](CO)C(=O)N[C@H](C(=O)N[C@@H](CC(N)=O)C(=O)N[C@H](C(=O)NCC(=O)N[C@@H](CO)C(=O)N[C@@H](CCC(=O)O)C(=O)N[C@H](C(=O)N[C@@H](Cc1ccc(O)cc1)C(N)=O)[C@@H](C)O)C(C)C)[C@@H](C)O
notes: also called compound 22
B5: N^α1-[(4S)-4-carboxy-4-(19-carboxynonadecanoylamino)butanoyl]-[Glu14,Arg17,Pro21,Pro27,Pro29]-h-amylin (peptide)
peptide: {C20 diacid-γGlu}-KCNTATCATQRLAEFLRHSSPNFGAIPSPTNVGSNTY-NH2
modifications: disulfide 2-7
SMILES: CC[C@H](C)[C@H](NC(=O)[C@H](C)NC(=O)CNC(=O)[C@H](Cc1ccccc1)NC(=O)[C@H](CC(N)=O)NC(=O)[C@@H]1CCCN1C(=O)[C@H](CO)NC(=O)[C@H](CO)NC(=O)[C@H](Cc1c[nH]cn1)NC(=O)[C@H](CCCNC(=N)N)NC(=O)[C@H](CC(C)C)NC(=O)[C@H](Cc1ccccc1)NC(=O)[C@H](CCC(=O)O)NC(=O)[C@H](C)NC(=O)[C@H](CC(C)C)NC(=O)[C@H](CCCNC(=N)N)NC(=O)[C@H](CCC(N)=O)NC(=O)[C@@H](NC(=O)[C@H](C)NC(=O)[C@@H]1CSSC[C@H](NC(=O)[C@H](CCCCN)NC(=O)CC[C@H](NC(=O)CCCCCCCCCCCCCCCCCCC(=O)O)C(=O)O)C(=O)N[C@@H](CC(N)=O)C(=O)N[C@@H]([C@@H](C)O)C(=O)N[C@@H](C)C(=O)N[C@@H]([C@@H](C)O)C(=O)N1)[C@@H](C)O)C(=O)N1CCC[C@H]1C(=O)N[C@@H](CO)C(=O)N1CCC[C@H]1C(=O)N[C@H](C(=O)N[C@@H](CC(N)=O)C(=O)N[C@H](C(=O)NCC(=O)N[C@@H](CO)C(=O)N[C@@H](CC(N)=O)C(=O)N[C@H](C(=O)N[C@@H](Cc1ccc(O)cc1)C(N)=O)[C@@H](C)O)C(C)C)[C@@H](C)O
notes: also called compound 37
B6: N^α1-[(4S)-4-carboxy-4-(19-carboxynonadecanoylamino)butanoyl]-[Glu14,Arg17,Pro21,Pro27,His35]-h-amylin (peptide)
peptide: {C20 diacid-γGlu}-KCNTATCATQRLAEFLRHSSPNFGAIPSSTNVGSHTY-NH2
modifications: disulfide 2-7
SMILES: CC[C@H](C)[C@H](NC(=O)[C@H](C)NC(=O)CNC(=O)[C@H](Cc1ccccc1)NC(=O)[C@H](CC(N)=O)NC(=O)[C@@H]1CCCN1C(=O)[C@H](CO)NC(=O)[C@H](CO)NC(=O)[C@H](Cc1c[nH]cn1)NC(=O)[C@H](CCCNC(=N)N)NC(=O)[C@H](CC(C)C)NC(=O)[C@H](Cc1ccccc1)NC(=O)[C@H](CCC(=O)O)NC(=O)[C@H](C)NC(=O)[C@H](CC(C)C)NC(=O)[C@H](CCCNC(=N)N)NC(=O)[C@H](CCC(N)=O)NC(=O)[C@@H](NC(=O)[C@H](C)NC(=O)[C@@H]1CSSC[C@H](NC(=O)[C@H](CCCCN)NC(=O)CC[C@H](NC(=O)CCCCCCCCCCCCCCCCCCC(=O)O)C(=O)O)C(=O)N[C@@H](CC(N)=O)C(=O)N[C@@H]([C@@H](C)O)C(=O)N[C@@H](C)C(=O)N[C@@H]([C@@H](C)O)C(=O)N1)[C@@H](C)O)C(=O)N1CCC[C@H]1C(=O)N[C@@H](CO)C(=O)N[C@@H](CO)C(=O)N[C@H](C(=O)N[C@@H](CC(N)=O)C(=O)N[C@H](C(=O)NCC(=O)N[C@@H](CO)C(=O)N[C@@H](Cc1c[nH]cn1)C(=O)N[C@H](C(=O)N[C@@H](Cc1ccc(O)cc1)C(N)=O)[C@@H](C)O)C(C)C)[C@@H](C)O
notes: also called compound 18

Molecular target: T1, human amylin 3(a) receptor (human …)
Assay: cell-based or functional assay

In order of falling “hAmylin-R funct. EC50 (pM)” value:
1. B4  270 pM
2. B6  154 pM
3. B2  120 pM
4. B5  92 pM
5. B1  82 pM
6. B3  72 pM

Molecular target: T2, human calcitonin receptor
Assay: cell-based or functional assay

In order of falling “Ratio hCT/hAmylin funct.” value:
1. B6  4.8
2. B5  4
3. B4  3.8
4. B1  1.1
5. B3  1
6. B2  0.9
